This is an account of results in patent US20170022287A1 (Chugai, published 2017).

In assay [1] the target is T1, CRD3-4.
T1 construct: also called fragmented human CD137-Fc fusion protein CRD3-4
Briefly: ELISA, coated CD137-Fc protein 2 µg/mL, antibody 10 or 5 µg/mL; absorbance 620 nm divided by that of the uncoated well. (In general: ELISA stands for enzyme-linked immunosorbent assay.)

Assay [2] concerns the target T2, CRD2-3.
T2 construct: also called fragmented human CD137-Fc fusion protein CRD2-3
The assay is described as above.

Assay [3] has as its target T3, CRD1-3.
T3 construct: also called fragmented human CD137-Fc fusion protein CRD1-3
The assay is described as above.

In assay [4] the target is T4, CRD1-2.
T4 construct: also called fragmented human CD137-Fc fusion protein CRD1-2
The assay is described as above.

Assay [5] deals with T5, CRD1.
T5 construct: also called fragmented human CD137-Fc fusion protein CRD1
The description is as above.

Assay [6] addresses T6, CRD2-4.
T6 construct: also called fragmented human CD137-Fc fusion protein CRD2-4
The assay is described as above.

Assay [7] addresses full-length human CD137-Fc fusion protein (human). The description is as above.
Assay [8] deals with T1, CRD3-4. Briefly: ELISA, coated CD137-Fc protein 2 µg/mL, antibody 10 or 5 µg/mL, absorbance 620 nm; Non (uncoated well) 0.216.
Assay [9] addresses T2, CRD2-3. The description is as above.
Assay [10] addresses T3, CRD1-3. The description is as above.
The target of assay [11] is T4, CRD1-2. Described as above.
For assay [12], the target named is T5, CRD1. The assay is described as above.
Assay [13] deals with T6, CRD2-4. The assay is described as above.
Assay [14] addresses full-length human CD137-Fc fusion protein (human). The assay is described as above.
The target in assay [15] is T1, CRD3-4. Briefly: ELISA, coated CD137-Fc protein 2 µg/mL, antibody 10 or 5 µg/mL, absorbance 620 nm; Non (uncoated well) 0.055. The procedure:
(§1) Fragmented human CD137-Fc fusion proteins were diluted to 2 μg/mL in an aqueous sodium carbonate solution adjusted to pH9.6. Fifty μL of a diluted fragmented human CD137-Fc fusion protein was added individually to each well of a Nunc MaxiSorp flat-bottom 96 well plate (Nunc). This was allowed to stand at 4° C. overnight or longer, and then the plate was allowed to stand at room temperature for one hour so that the plate has the same temperature as the room temperature. The solution containing the fragmented human CD137-Fc fusion protein was removed by tilting, and each well was washed three times with 300 μL of Wash buffer (TBS containing 0.1% Tween20, TaKaRa). Next, 150 μL of blocking buffer (TBS containing 2% BSA) was added to each well, and this was allowed to stand for one hour or more. The blocking buffer was removed by tilting, and each well was washed three times with Wash Buffer in a similar manner to an earlier step. Then, 50 μL of an antibody solution prepared in advance by dilution with TBS to 10 μg/mL or 5 μg/mL was added to each well. This was subjected to a speed of 600 rpm or so for one hour at room temperature to bind the antibody to the immobilized antigen. […] 100 μL of a secondary antibody solution produced by 1000-fold dilution with TBS containing 0.1% Tween20 was added to each well. For the secondary antibody, ANTIBODY ALKALINE PHOSPHATASE CONJUGATE HUMAN IMMUNOGLOBULIN ABSORBED Goat Anti-Human Kappa Alkaline Phosphate from BIOSOURCE was used in the case of antibodies carrying a Kappa chain, and Human Lambda Light Chain Antibody; Goat anti-Human Lambda Light Chain Antibody Alkaline Phosphatase Conjugated from BETHYL LABORATORIES INC. was used in the case of antibodies carrying a Lambda chain. […] Color development was performed using the BluePhos Microwell kit from KPL. After the chromogenic reaction was stopped using the AP stop solution from KPL, the absorbance was measured at 620 nm on an absorptiometer.

Assay [16] deals with T4, CRD1-2. The description is as above. The procedure:
as §1

For assay [17], the target named is T5, CRD1. The assay is described as above. The procedure:
as §1

Assay [18] has as its target T1, CRD3-4. Put plainly: ELISA, coated CD137-Fc protein 2 µg/mL, antibody 10 or 5 µg/mL, absorbance 620 nm; Non (uncoated well) 0.165.
The target of assay [19] is T2, CRD2-3. The assay is described as above.
In assay [20] the target is T3, CRD1-3. The description is as above.
Assay [21] concerns the target T6, CRD2-4. The description is as above.
Assay [22] concerns the target full-length human CD137-Fc fusion protein (human). The description is as above.
Assay [23] deals with T1, CRD3-4. Put plainly: ELISA, coated CD137-Fc protein 2 µg/mL, antibody 10 or 5 µg/mL, absorbance 620 nm; Non (uncoated well) 0.4435.
Assay [24] concerns the target T2, CRD2-3. The description is as above.
Assay [25] concerns the target T3, CRD1-3. The assay is described as above.
In assay [26] the target is T4, CRD1-2. The assay is described as above.
Assay [27] has as its target T5, CRD1. Described as above.
The target of assay [28] is T6, CRD2-4. The assay is described as above.
Assay [29] concerns the target full-length human CD137-Fc fusion protein (human). The assay is described as above.

Substitutions are numbered along the chain they refer to.

T1 sequence (chain, as listed by the source limits assumed): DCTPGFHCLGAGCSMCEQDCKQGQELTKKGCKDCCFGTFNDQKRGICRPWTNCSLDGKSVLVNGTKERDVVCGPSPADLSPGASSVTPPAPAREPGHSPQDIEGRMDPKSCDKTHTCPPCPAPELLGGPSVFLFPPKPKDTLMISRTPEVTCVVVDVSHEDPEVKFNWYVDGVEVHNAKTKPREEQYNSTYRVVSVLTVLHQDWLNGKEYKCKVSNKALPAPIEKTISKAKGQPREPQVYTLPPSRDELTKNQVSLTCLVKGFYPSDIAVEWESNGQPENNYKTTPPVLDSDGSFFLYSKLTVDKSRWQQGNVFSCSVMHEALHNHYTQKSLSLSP
T4 sequence (chain, as listed by the source limits assumed): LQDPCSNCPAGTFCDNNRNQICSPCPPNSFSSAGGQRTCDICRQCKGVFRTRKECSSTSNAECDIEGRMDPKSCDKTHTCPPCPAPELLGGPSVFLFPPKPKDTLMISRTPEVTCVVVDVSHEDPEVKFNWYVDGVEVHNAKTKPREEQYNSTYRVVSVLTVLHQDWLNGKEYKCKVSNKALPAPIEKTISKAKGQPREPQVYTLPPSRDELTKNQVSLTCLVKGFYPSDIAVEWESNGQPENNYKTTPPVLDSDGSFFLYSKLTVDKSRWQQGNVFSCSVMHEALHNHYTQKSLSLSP
T6 sequence (chain, as listed by the source limits assumed): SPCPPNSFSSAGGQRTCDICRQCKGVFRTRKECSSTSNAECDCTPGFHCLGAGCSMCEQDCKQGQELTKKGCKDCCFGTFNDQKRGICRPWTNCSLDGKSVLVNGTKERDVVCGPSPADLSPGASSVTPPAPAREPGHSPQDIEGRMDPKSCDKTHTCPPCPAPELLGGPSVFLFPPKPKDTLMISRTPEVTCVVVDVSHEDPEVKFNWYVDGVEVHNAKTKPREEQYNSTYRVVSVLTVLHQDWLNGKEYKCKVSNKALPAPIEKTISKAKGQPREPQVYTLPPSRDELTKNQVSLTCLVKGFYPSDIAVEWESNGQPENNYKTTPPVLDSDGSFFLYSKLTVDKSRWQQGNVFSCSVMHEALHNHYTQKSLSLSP
T3 sequence (chain, as listed by the source limits assumed): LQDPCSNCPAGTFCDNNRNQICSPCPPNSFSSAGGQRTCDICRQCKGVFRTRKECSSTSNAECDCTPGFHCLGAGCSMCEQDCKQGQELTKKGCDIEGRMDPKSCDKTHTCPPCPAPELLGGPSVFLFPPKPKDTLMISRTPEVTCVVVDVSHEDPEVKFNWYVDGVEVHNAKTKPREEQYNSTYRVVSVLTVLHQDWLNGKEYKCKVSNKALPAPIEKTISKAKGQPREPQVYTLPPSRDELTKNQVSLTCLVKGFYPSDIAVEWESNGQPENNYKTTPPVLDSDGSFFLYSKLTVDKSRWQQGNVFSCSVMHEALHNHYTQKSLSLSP
Sequence of full-length human CD137-Fc fusion protein (human) (chain, as listed by the source limits assumed): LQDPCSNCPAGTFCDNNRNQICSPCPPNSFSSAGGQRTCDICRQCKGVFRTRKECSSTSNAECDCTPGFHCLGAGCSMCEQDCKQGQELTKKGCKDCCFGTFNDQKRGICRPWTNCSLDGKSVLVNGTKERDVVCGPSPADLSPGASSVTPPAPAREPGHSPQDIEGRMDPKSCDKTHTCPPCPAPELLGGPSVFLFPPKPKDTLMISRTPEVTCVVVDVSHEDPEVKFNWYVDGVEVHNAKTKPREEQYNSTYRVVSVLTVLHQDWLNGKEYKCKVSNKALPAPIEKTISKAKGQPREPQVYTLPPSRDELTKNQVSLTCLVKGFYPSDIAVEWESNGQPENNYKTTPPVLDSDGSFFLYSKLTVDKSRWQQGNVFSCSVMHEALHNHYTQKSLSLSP
T2 sequence (chain, as listed by the source limits assumed): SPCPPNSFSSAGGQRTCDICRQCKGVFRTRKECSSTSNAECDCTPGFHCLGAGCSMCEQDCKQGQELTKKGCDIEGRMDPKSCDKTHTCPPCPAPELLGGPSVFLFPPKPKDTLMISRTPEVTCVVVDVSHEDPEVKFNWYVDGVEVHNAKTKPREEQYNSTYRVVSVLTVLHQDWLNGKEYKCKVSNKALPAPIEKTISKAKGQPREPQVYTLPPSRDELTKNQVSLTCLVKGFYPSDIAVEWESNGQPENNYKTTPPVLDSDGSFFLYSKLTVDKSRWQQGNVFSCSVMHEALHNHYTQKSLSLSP
T5 sequence (chain, as listed by the source limits assumed): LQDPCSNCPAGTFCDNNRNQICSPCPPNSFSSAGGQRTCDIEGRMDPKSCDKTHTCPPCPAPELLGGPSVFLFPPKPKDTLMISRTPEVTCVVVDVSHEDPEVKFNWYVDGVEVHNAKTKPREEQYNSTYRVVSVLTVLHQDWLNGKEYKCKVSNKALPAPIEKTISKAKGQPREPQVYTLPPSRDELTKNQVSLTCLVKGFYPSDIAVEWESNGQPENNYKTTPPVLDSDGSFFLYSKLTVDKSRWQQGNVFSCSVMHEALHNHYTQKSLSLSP

B1: R5 (antibody, V domains shown)
VH: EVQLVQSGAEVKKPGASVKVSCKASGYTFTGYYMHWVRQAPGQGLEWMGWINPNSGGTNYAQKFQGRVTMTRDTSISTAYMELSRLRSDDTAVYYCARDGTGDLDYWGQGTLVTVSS
VL: QSALTQPRSVSGSPGQSVTISCTGTSSDVGVYDYVSWYQQFPGKAPKLMIYDVNKRPSGVPDRFSGSKSGNTASLTVSGLQAEDEADYYCCSYSGTDIRWLFGGGTKLTVL
notes: Naive library clone; Fab on phage in the phage ELISA
As for B1, the “Ratio with respect to Non-Coating” value was 0.7 with CRD3-4 [1]; 1.3 in the assay with CRD2-3 [2]; 6.3 with CRD1-3 [3]; 7.9 with CRD1-2 [4]; 1.3 in the assay with CRD1 [5]; 1.2 with CRD2-4 [6]. In addition, in [7], the “Ratio with respect to Non-Coating” value was 8.7. Besides, the “ELISA color development level” value was determined as 0.161 in the assay with CRD3-4 [8]; 0.274 with CRD2-3 [9]; 1.36 with CRD1-3 [10]; 1.7 in the assay with CRD1-2 [11]; 0.278 with CRD1 [12]; 0.25 with CRD2-4 [13]. Further, the “ELISA color development level” value in assay [14] was 1.88.

B2: M (antibody, human IgG1, lambda, V domains shown)
VH: EVQLVQSGAEVKKPGESLRISCKGSGYSFSTYWISWVRQMPGKGLEWMGKIYPGDSYTNYSPSFQGQVTISADKSISTAYLQWSSLKASDTAMYYCARGYGIFDYWGQGTLVTVSS
VL: SYELTQPPSVSVSPGQTASITCSGDNIGDQYAHWYQQKPGQSPVLVIYQDKNRPSGIPERFSGSNSGNTATLTISGTQAMDEADYYCATYTGFGSLAVFGGGTKLTVLQ
notes: also called Control M
On to B2, for which the “ELISA color development level” value in the assay with CRD3-4 [15] was 2.26; with CRD1-2 [16], 0.085; with CRD1 [17], 0.093. Besides, the “Ratio with respect to Non-Coating” value with CRD3-4 [1] worked out at 41.1.

B3: R6 (antibody, V domains shown)
VH: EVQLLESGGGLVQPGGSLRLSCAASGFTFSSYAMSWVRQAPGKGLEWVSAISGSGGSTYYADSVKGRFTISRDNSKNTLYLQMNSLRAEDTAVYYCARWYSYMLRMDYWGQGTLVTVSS
VL: DIQMTQSPSSLSASVGDRVTITCRASQSISSYLNWYQQKPGKAPKLLIYAASSLQSGVPSRFSGSGSGTDFTLTISSLQPEDFATYYCQQFHSFPLTFGGGTKVEIK
notes: Synthetic library clone; Fab on phage in the phage ELISA
In the case of B3, the “ELISA color development level” value was determined as 2.73 with CRD3-4 [18]; 2.56 in the assay with CRD2-3 [19]; 2.3 with CRD1-3 [20]; 2.34 with CRD2-4 [21]; 2.16 in assay [22]. The “Ratio with respect to Non-Coating” value was determined as 16.6 in the assay with CRD3-4 [1]; 15.5 with CRD2-3 [2]; 13.9 with CRD1-3 [3]; 14.2 with CRD2-4 [6]; 13.1 in [7].

B4: R7 (antibody, V domains shown)
VH: QVQLLESGGGLVQPGGSLRLSCAASGFTFSSYAMSWVRQAPGKGLEWVSAISGSGGSTYYADSVKGRFTISRDNSKNTLYLQMNSLRAEDTAVYYCARDRAMYHPSFNYWGQGTLVTVSS
VL: B3 VL with H92N, F94Y
notes: as for B3
Turning to B4, the “ELISA color development level” value was determined as 2.63 with CRD3-4 [23]; 2.52 with CRD2-3 [24]; 2.23 with CRD1-3 [25]; 0.814 with CRD1-2 [26]; 0.61 with CRD1 [27]; 2.19 with CRD2-4 [28]. The “ELISA color development level” value in [29] stood at 1.92. Besides, the “Ratio with respect to Non-Coating” value in the assay with CRD3-4 [1] is 5.9; with CRD2-3 [2] it was 5.7; with CRD1-3 [3], 5; in the assay with CRD1-2 [4] it was 1.8; with CRD1 [5] it was 1.4; with CRD2-4 [6] it was 4.9. For the same molecule, the “Ratio with respect to Non-Coating” value in assay [7] is 4.3.
